Key:
ArsR1 [1] = target: T1, ArsR1 (Paracoccus denitrificans, UniProt A1B6S3); experiment: size-exclusion chromatography: dimer to monomer; also EMSA and fluorescence anisotropy: release from operator DNA; type: binding; settings: 0.1 mM arsenite, 10 mM MOPS/0.1 M NaCl/15% glycerol pH 7.5
T1 construct: gene Pden_3136

[2] = target: Paracoccus denitrificans ArsH (Pden_3133 protein), recombinant N-His6-ArsH (Paracoccus denitrificans); experiment: crystal structure; X-ray, 2.6 Å; sitting-drop vapor diffusion at 25 °C; molecular replacement with S. flexneri ArsH; four monomers in the asymmetric unit; interfaces analysed with PISA
[3] = target: Paracoccus denitrificans ArsR1 (product of pden_3136), recombinant with N-terminal hexahistidine tag (Paracoccus denitrificans); experiment: SEC; Superose 12, 10 mM MOPS/0.1 M NaCl/15% glycerol pH 7.5, 0.5 mL/min; 500 μL of 40 μM ArsR1 loaded, untreated; calibrated with ribonuclease A, chymotrypsinogen A, ovalbumin and albumin
[4] = system: Cc1cc2nc3c(=O)[nH]c(=O)nc-3n(C[C@H](O)[C@H](O)[C@H](O)COP(=O)(O)O)c2cc1C; experiment: purified protein; settings: NADPH varied 5-150 μM, 0.1 M sodium phosphate pH 7.0, 30 °C, sequential ternary-complex mechanism
[5] = system: NC(=O)C1=CN([C@@H]2O[C@H](COP(=O)(O)OP(=O)(O)OC[C@H]3O[C@@H](n4cnc5c(N)ncnc54)[C@H](OP(=O)(O)O)[C@@H]3O)[C@@H](O)[C@H]2O)C=CC1; experiment: purified protein; settings: co-substrate FMN (varied), 0.1 M sodium phosphate pH 7.0, 30 °C, sequential ternary-complex mechanism
ArsR2 = target: T2, ArsR2 (Paracoccus denitrificans, UniProt A1B7C2 1-120); experiment: fluorescence anisotropy; Anisotropy: 10 mM MOPS, 0.1 M NaCl, 15% glycerol, pH 7.5 (Methods; Figure 9 legend says pH 7.0), 30 °C, 25 nM DNA; EMSA: 10 mM Tris-HCl, 50 mM NaCl, 0.5 mM EDTA, pH 8.0, room temperature, 10 µM DNA and 10 µM ArsR; settings: protein: recombinant; tags: N-terminal His6 (pET100/D-TOPO); chain copies: 2; label: 5'-FAM on strand 1; blunt
T2 sequence: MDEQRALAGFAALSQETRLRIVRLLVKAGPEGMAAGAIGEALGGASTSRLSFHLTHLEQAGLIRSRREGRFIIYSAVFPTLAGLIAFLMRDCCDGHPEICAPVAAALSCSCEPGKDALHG

ArsR1 [6] = target: T3, ArsR1 (Paracoccus denitrificans, UniProt A1B6S3 1-119); experiment: as above; settings: protein: recombinant; tags: N-terminal His6 (pET100/D-TOPO); chain copies: 2; label: 5'-FAM on strand 1; blunt
T3 sequence: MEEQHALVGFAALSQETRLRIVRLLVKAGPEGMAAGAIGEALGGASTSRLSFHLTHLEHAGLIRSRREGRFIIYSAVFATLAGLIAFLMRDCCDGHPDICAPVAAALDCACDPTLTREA

Molecule: O[As](O)O [sodium arsenite]
- size-exclusion chromatography: dimer to monomer; also EMSA and fluorescence anis (ArsR1 [1]): arsenite or diamide-treated ArsR eluted at the monomer size

Molecule: Paracoccus denitrificans ArsH (Pden_3133 protein), recombinant N-His6-ArsH (from UniProt A0A9X7N4T4 1-238) (enzyme)
- stoichiometry N [2]: 4

Molecule: Paracoccus denitrificans ArsR1 (product of pden_3136), recombinant with N-terminal hexahistidine tag (natural protein)
- stoichiometry N [3]: 2

Molecule: ArsH (Pden_3133; N-His6-ArsH) (Paracoccus denitrificans PD1222)
- Km [4]: 9.3 ± 0.7 µM
- kcat [4]: 12.6 ± 0.4 s⁻¹
- Km [5]: 12 ± 2 µM
- kcat [5]: 12.6 ± 0.4 s⁻¹

B1: PDNA1 (dsDNA)
DNA 1: CTCAACATATCTTGAGAGGTTGATTCG
DNA 2: CGAATCAACCTCTCAAGATATGTTGAG
- Kd (ArsR2): 130 ± 20 nM
- Kd (ArsR1 [6]): 9 ± 1 nM

B2: PDNA2 (dsDNA)
DNA 1: ATCAACATATCTTGAGAGGTTGATTCG
DNA 2: CGAATCAACCTCTCAAGATATGTTGAT
- Kd (ArsR2): 140 ± 10 nM
- Kd (ArsR1 [6]): 26 ± 4 nM
